From US20240024520A1, “AUTONOMOUS KNOB DOMAIN PEPTIDES” (UCB BIOPHARMA SRL, priority 2020, published 2024)
“And” between values parts separate entries of the source, which are not always exact repeats. Equal entries are not always repeated. Where two headings read alike, the source gives them in different places. Values belong to the binder of their own block, whether it stands above or below them.

Experiments:
[1] = target: human complement component C5 (human), P01031
[2] = target: human complement component C5 (human), P01031; remark: listed apart in the source
[3] = target: human complement component C5 (human), P01031; remark: listed apart in the source
[4] = target: human complement component C5 (human), P01031; remark: listed apart in the source
[5] = target: human complement component C5 (human), P01031; assay: SPR multi-cycle kinetics

Chain of human complement component C5 (human), P01031 (P01031 19-673 limits assumed, chain 1 of 2): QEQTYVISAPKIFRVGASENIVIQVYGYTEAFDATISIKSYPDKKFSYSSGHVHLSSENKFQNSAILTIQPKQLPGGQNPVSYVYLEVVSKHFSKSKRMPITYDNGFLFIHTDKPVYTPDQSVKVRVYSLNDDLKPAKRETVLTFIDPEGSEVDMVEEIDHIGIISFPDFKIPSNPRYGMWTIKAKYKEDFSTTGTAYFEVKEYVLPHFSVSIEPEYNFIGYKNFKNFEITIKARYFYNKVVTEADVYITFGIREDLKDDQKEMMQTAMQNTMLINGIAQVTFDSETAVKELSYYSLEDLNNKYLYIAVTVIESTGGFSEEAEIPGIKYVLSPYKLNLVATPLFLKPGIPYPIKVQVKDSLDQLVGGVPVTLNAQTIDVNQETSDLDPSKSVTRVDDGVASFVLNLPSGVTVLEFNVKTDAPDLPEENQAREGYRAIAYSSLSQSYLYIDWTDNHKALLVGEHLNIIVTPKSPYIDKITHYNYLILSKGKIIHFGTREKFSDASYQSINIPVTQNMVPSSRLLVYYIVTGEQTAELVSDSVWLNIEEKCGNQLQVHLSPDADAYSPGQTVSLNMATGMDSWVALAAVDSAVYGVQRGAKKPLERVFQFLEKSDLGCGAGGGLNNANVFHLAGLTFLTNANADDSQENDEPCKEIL
Chain of human complement component C5 (human), P01031 (P01031 678-1676 limits assumed, chain 2 of 2): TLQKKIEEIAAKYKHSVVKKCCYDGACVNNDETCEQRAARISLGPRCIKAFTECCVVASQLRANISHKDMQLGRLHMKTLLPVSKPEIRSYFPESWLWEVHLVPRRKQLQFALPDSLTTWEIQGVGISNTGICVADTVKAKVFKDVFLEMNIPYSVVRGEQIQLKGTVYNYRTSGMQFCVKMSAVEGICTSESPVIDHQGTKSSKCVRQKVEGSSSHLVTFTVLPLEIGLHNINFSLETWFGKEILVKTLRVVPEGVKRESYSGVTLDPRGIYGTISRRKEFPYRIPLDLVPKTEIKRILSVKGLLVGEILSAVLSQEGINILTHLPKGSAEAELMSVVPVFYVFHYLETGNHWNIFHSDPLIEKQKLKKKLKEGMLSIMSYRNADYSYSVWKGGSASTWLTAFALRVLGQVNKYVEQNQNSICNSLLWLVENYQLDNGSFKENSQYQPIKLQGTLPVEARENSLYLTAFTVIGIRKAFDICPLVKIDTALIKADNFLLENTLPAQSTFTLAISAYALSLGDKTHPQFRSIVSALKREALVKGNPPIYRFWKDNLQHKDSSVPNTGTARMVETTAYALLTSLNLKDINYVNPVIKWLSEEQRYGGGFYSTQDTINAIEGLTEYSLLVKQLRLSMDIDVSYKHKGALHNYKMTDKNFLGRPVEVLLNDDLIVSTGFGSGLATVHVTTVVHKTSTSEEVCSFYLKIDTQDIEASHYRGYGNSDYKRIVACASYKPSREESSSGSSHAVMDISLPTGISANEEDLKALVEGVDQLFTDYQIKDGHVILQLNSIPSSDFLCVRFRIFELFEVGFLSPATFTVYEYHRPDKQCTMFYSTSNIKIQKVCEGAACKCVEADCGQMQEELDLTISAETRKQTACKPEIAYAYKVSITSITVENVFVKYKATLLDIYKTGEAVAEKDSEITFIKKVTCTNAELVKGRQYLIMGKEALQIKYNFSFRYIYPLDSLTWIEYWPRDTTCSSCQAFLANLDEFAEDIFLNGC

B1: K149 knob domain peptide cleaved from the 645 Fab (peptide)
peptide: GSGSCPDGFSYRSWDDFCCPMVGRCLAPRNGSENLYFQ
modifications: not checked
Kd [1]: 36.5 nM
Ki [2]: 26.7 nM

B3: K149B knob domain peptide, chemically synthesised, site-directed disulphides (peptide)
peptide: SCPDGFSYRSWDDFCCPMVGRCLAPRN
modifications: not checked
Kd [4]: 246 nM
koff [4]: 0.00732 s⁻¹
kon [4]: 29700 M⁻¹ s⁻¹
fold lower affinity than K149chemSD-A [5]: 35 fold
Kd [3]: 269 nM
koff [3]: 0.00417 s⁻¹
kon [3]: 15600 M⁻¹ s⁻¹

B5: K149 knob domain peptide, chemically synthesised, free energy method (Example 4) (peptide)
peptide: SCPDGFSYRSWDDFCCPMVGRCLAPRNGS
modifications: not checked
Kd [4]: 4.46 nM
koff [4]: 0.00685 s⁻¹
kon [4]: 1.54e+06 M⁻¹ s⁻¹

The next lines start with the values.

Kd [3]: 5.57 nM
koff [3]: 0.00448 s⁻¹
kon [3]: 861000 M⁻¹ s⁻¹
B2: K149chemFE knob domain peptide (peptide)
peptide: SCPDGFSYRSWDDFCCPMVGRCLAPRN
modifications: not checked

Kd [1]: 6.4 nM
IC50 [2]: 44.9 nM and 31.2 nM
Ki [2]: 18.9 nM
B4: K136 knob domain peptide cleaved from the 645 Fab (peptide)
peptide: GSTCPDNYREVDGCDPYDCCLTTWCTNSYCTRYIENLYFQ
modifications: not checked
